# From article doi:10.1101/2025.11.18.25340485 (medRxiv, 2025)
# Target: T1, WT-RBD (receptor-binding domain of the SARS-CoV-2 wild-type, Wuhan-Hu-1, spike protein) (SARS-CoV-2, UniProt P0DTC2)
# T1 construct: not shown: His6, C-terminal, kept
# Assay: BLI
# Settings: both partners purified
binder,measurement,value
"CC25.4 Fab (Fab, V domains shown, also called class V antibody; source: ExpiCHO cells, co-transfected, purified (CaptureSelect CH1-XL, SEC)) VH: QVQLVQSGAEVKKPGASVKVSCKASGYTFTDYFLHWVRQAPGQGLEWMGWINPDSGGTNYAQRFQGRVTMTRDTSISTAYMEVSRLRSDDTAVYYCARDNERYQMQNYYHYYGMDVWGQGTTVTVVS VL: not shown",Kd,0.4 nM
